In patent publication US20190185532A1 (UNIVERSITY OF BIRMINGHAM, published 2019):

Key:
Assay in all cases: flow cytometry on transfected HEK293T cells, streptavidin-PE
[1] = biological target: T1, CLEC14A (human, wild type, C-terminal GFP tag, expressed in HEK293T) (human, UniProt Q86T13 22-490)
T1 construct: On cells in flow cytometry; as non-reduced HEK293T lysate in far western blots; also called CLEC14A wt; cell surface expressed CLEC14A; not shown: C-terminal green fluorescent protein (GFP) tag from vector pEGFP-N1
T1 sequence: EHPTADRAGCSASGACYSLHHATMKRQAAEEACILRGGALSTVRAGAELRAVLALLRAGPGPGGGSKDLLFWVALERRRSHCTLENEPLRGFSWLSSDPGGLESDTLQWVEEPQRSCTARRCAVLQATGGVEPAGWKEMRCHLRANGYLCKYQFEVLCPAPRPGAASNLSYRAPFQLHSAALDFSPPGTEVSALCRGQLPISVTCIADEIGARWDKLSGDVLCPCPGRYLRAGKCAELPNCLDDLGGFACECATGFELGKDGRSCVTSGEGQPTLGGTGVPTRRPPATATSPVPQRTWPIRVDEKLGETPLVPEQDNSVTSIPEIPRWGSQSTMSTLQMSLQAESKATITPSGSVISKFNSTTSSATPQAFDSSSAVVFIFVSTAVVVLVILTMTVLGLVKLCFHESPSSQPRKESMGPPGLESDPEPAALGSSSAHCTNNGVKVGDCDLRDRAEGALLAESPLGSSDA
Description: (§1) The minimal CLEC14A binding fragment is highlighted in black. (B,C) HEK293T were transfected with truncation mutants. Lysates were far western blotted under reduced conditions with CLEC14A extracellular domain fused to an Fc tag (CLEC14A-ECD-Fc) and western blotted by use of His tag antibodies. (B) The smallest binding fragment was identified as MMRN2⁴⁸⁷⁻⁸²⁰, MMRN2^FL fails to bind CLEC14A-ECD-Fc. (C) The smallest MMRN2 fragment binding CLEC14A is MMRN2⁵³⁰⁻⁶²⁴. (D) MMRN2⁴⁹⁵⁻⁶⁷⁴ and MMRN2⁴⁹⁵⁻⁶⁰³ bind to streptavidin under reducing conditions after biotinylation. (E) Flow cytometry histograms of HEK293T transfected with GFP tagged CTLD group 14 family members and stained with biotinylated MMRN2⁴⁹⁵⁻⁶⁷⁴ (grey line), confirming binding to CLEC14A and CD93 but not thrombomodulin. Streptavidin-PE was used as a control for background binding (grey shaded).
(§2) The human MMRN2⁴⁹⁵⁻⁶⁷⁴ fragment along with the non-CLEC14A binding fragment MMRN2⁴⁹⁵⁻⁶⁰³ was expressed in E. coil with a His tag for purification and a BirA tag for specific biotinylation (17). Biotinylated proteins could bind to streptavidin in western blots (FIG. 2D) and MMRN2⁴⁹⁵⁻⁶⁷⁴ could bind to cell surface expressed CLEC14A and CD93 but not thrombomodulin detected by flow cytometry. This confirmed the CLEC14A and CD93 interactions likely occur in the same region of MMRN2 (FIG. 2E).
(§3) HUVEC or transfected HEK293T cells were detached from tissue culture plates using cell dissociation buffer or scraped and 5×10⁵ cells were stained with 20 ug/mL of antibody of interest or 20 μg/mL of recombinant protein. In blocking experiments, hCLEC14A-ECD-Fc was incubated with 2× molar excess of antibody or recombinant protein on ice for 1 hour. Flow cytometry buffer (PBS with 0.2% (w/v) BSA and 0.02% (w/v) sodium azide) was used for all wash and incubation steps. Samples were analysed on a FACSCalibur machine (BD Biosciences). […] Isotype control staining or human Fc alone was used as background fluorescence and this was subtracted from the geometric mean fluorescence intensity of each sample.

[2] = biological target: T2, thrombomodulin (human, C-terminal GFP tag, expressed in HEK293T) (human, UniProt P07204 19-575)
T2 construct: whole, on cells; On cells in flow cytometry; as non-reduced HEK293T lysate in far western blots; also called THBD; THBD wt; not shown: C-terminal green fluorescent protein (GFP) tag from vector pEGFP-N1
Description: as §1, §2, §3

[3] = biological target: T3, CD93 (human, wild type, C-terminal GFP tag, expressed in HEK293T) (human, UniProt Q9NPY3 22-652)
T3 construct: On cells in flow cytometry; as non-reduced HEK293T lysate in far western blots; also called CD93 wild type (wt); cell surface expressed CD93; not shown: C-terminal green fluorescent protein (GFP) tag from vector pEGFP-N1
T3 sequence: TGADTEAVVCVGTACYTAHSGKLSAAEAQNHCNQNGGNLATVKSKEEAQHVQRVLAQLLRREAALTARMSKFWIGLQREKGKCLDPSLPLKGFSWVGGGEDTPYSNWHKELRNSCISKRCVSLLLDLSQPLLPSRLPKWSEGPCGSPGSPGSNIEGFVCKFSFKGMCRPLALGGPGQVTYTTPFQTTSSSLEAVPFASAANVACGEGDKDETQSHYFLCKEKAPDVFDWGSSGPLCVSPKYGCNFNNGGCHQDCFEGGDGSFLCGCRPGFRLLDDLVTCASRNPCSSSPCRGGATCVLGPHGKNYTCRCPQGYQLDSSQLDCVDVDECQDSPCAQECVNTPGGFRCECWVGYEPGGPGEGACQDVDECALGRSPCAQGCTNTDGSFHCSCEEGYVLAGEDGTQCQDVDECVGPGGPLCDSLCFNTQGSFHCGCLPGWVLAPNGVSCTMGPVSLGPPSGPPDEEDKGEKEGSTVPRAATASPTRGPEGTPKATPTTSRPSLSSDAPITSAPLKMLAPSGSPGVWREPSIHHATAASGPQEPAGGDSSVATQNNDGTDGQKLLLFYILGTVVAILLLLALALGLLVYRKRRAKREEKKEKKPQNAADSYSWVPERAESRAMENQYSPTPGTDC
Description: as §1, §2, §3

T2 sequence (P07204 19-575): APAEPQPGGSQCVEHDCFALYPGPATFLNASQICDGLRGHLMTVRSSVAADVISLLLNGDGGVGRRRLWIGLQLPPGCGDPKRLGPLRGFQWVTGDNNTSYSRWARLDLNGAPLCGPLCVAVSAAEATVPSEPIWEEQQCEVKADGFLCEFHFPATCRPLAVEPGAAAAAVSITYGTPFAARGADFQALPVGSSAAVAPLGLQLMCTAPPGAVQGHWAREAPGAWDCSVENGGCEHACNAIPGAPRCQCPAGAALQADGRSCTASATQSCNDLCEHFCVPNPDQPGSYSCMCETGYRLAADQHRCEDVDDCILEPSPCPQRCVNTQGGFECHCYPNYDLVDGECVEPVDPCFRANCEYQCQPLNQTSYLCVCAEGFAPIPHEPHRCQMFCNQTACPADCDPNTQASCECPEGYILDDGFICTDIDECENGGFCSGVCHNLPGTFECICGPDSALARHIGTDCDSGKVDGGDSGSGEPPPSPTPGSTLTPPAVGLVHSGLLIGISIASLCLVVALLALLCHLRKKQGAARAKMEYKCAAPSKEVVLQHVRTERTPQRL

binding result [1]: binds
binding result [2]: no binding (tested: 20 µg/mL)
binding result [3]: binds
B1: biotinylated MMRN2^495-674 (human, expressed in E. coli with a His tag and a BirA tag) (ligand)
chain: QKLYLDLDVIREGQRDATRALEETQVSLDERRQLDGSSLQALQNAVDAVSLAVDAHKAEGERARAATSRLRSQVQALDDEVGALKAAAAEARHEVRQLHSAFAALLEDALRHEAVLAALFGEEVLEEMSEQTPGPLPLSYEQIRVALQDAASGLQEQALGWDELAARVTALEQASEPPRP
modifications: biotin on the BirA tag
notes: Used for staining of transfected HEK293T cells in flow cytometry, detected with streptavidin-PE; not shown: BirA tag and His tag (vector pET23a)
